According to article PMC3903133, “Single-molecule analysis reveals self assembly and nanoscale segregation of two distinct cavin subcomplexes on caveolae” (eLife, 2014):
Where “and” joins values, the source holds several entries; their conditions need not be identical. Equal entries are not always repeated.

B1: cavin1-GFP (natural protein, UniProt Q6NZI2 1-390, looked up)
chain: MEDPTLYIVERPLPGYPDAEAPEPSSAGAQAAEEPSGAGSEELIKSDQVNGVLVLSLLDKIIGAVDQIQLTQAQLEERQAEMEGAVQSIQGELSKLGKAHATTSNTVSKLLEKVRKVSVNVKTVRGSLERQAGQIKKLEVNEAELLRRRNFKVMIYQDEVKLPAKLSISKSLKESEALPEKEGEELGEGERPEEDAAALELSSDEAVEVEEVIEESRAERIKRSGLRRVDDFKKAFSKEKMEKTKVRTRENLEKTRLKTKENLEKTRHTLEKRMNKLGTRLVPAERREKLKTSRDKLRKSFTPDHVVYARSKTAVYKVPPFTFHVKKIREGQVEVLKATEMVEVGADDDEGGAERGEAGDLRRGSSPDVHALLEITEESDAVLVDKSDSD
notes: cavin1 / polymerase transcript release factor (PTRF); construct cloned as described in Hill et al. (2008); The only hint on species is the keyword 'human'; the cDNA may be of mouse (surmise); also called polymerase transcript release factor; PTRF; source: MCF-7 or MDCK cells, transfected (Lipofectamine 2000), in supernatant of mechanically lysed cells
B5: cavin2-GFP (natural protein, UniProt O95810 1-425, looked up)
chain: MGEDAAQAEKFQHPGSDMRQEKPSSPSPMPSSTPSPSLNLGNTEEAIRDNSQVNAVTVLTLLDKLVNMLDAVQENQHKMEQRQISLEGSVKGIQNDLTKLSKYQASTSNTVSKLLEKSRKVSAHTRAVKERMDRQCAQVKRLENNHAQLLRRNHFKVLIFQEENEIPASVFVKQPVSGAVEGKEELPDENKSLEETLHTVDLSSDDDLPHDEEALEDSAEEKVEESRAEKIKRSSLKKVDSLKKAFSRQNIEKKMNKLGTKIVSVERREKIKKSLTSNHQKISSGKSSPFKVSPLTFGRKKVREGESHAENETKSEDLPSSEQMPNDQEEESFAEGHSEASLASALVEGEIAEEAAEKATSRGSNSGMDSNIDLTIVEDEEEESVALEQAQKVRYEGSYALTSEEAERSDGDPVQPAVLQVHQTS
notes: cavin2 / SDPR (serum deprivation response protein); construct cloned as described in Hill et al. (2008); The only hint on species is the keyword 'human'; the cDNA may be of mouse (surmise); also called SDPR; serum deprivation response protein; source: MCF-7 or MDCK cells, transfected (Lipofectamine 2000), in supernatant of mechanically lysed cells

What was measured:
[1] = molecular target: the molecule itself; test: single-molecule brightness analysis; burst brightness of fluorescent cavins in supernatant of MCF-7 cells without CAV1, calibrated on monomeric GFP (maximum 100 photons)
[2] = molecular target: T1, CAV1 untagged (UniProt Q03135 1-178); test: single-molecule brightness analysis; burst brightness in supernatant of MCF-7 cells transfected with CAV1-GFP, or with cavin1-GFP and untagged CAV1; calibrated on a single GFP; conditions: partners not purified
T1 construct: caveolin-1 (CAV1), untagged; construct cloned as described in Hill et al. (2008); also called caveolin-1; source: MCF-7 cells, transfected, in post nuclear supernatant
T1 sequence (looked up): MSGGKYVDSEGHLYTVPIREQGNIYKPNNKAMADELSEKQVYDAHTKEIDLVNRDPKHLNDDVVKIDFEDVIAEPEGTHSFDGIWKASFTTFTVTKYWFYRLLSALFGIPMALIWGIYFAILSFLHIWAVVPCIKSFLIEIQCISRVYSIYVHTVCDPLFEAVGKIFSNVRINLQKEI

[3] = molecular target: the molecule itself; test: as above
[4] = molecular target: T2, CAV1-GFP (UniProt Q03135 1-178); test: single-molecule two-colour fluorescence coincidence; MCF-7 cells expressing CAV1-GFP and cavin1-Cherry; caveolae in the post nuclear supernatant; conditions: partners not purified
T2 construct: caveolin-1 (CAV1); construct cloned as described in Hill et al. (2008); membrane protein, seen on caveolae in the cell extract; also called caveolin-1; Caveolin-1; source: MCF-7 cells, transfected, in post nuclear supernatant
T2 sequence (looked up): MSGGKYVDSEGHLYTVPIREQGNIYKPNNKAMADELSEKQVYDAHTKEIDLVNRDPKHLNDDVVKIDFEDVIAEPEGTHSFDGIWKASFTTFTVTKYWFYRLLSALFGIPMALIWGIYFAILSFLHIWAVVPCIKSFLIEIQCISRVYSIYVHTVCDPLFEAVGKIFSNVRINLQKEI

[5] = molecular target: B1; test: single-molecule brightness analysis; burst brightness of oligomers in the cytoplasmic fraction of MDCK cells after hypo-osmotic treatment (20 min); conditions: partners not purified
[6] = molecular target: B5; test: single-molecule two-colour fluorescence coincidence; MDCK cells (endogenous cavin1 and CAV1) co-transfected; cytoplasmic fraction after hypo-osmotic treatment (DMEM 1:10 in water, 20 min, 37°C); conditions: partners not purified
[7] = molecular target: T3, cavin3-GFP (UniProt Q969G5 1-261); test: as above; conditions: partners not purified
T3 construct: construct cloned as described in Hill et al. (2008); The only hint on species is the keyword 'human'; the cDNA may be of mouse (surmise); also called SRBC; source: MCF-7, MDCK or HeLa cells, transfected (Lipofectamine 2000), in supernatant of mechanically lysed cells
T3 sequence (looked up): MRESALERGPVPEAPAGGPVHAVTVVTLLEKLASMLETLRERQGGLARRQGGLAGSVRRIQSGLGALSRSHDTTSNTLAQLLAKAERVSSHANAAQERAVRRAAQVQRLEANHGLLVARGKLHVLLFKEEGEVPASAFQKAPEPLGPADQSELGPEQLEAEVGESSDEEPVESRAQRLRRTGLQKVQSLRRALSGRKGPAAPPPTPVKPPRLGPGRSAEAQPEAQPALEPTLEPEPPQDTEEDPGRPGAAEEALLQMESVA

[8] = molecular target: T4, cavin1-GFP (cell-free) (UniProt Q6NZI2 1-390); test: single-molecule two-colour fluorescence coincidence; co-expression in the Leishmania tarentolae cell-free system at DNA ratios from 100% GFP to 100% Cherry; >1000 bursts for each ratio; conditions: partners not purified
T4 construct: cavin1 / polymerase transcript release factor (PTRF); ORF in a Gateway DNA template for cell-free expression; also called PTRF; source: Leishmania tarentolae cell-free system (LTE), in vitro translated, not purified; not shown: eGFP, N-terminal, kept
T4 sequence (looked up): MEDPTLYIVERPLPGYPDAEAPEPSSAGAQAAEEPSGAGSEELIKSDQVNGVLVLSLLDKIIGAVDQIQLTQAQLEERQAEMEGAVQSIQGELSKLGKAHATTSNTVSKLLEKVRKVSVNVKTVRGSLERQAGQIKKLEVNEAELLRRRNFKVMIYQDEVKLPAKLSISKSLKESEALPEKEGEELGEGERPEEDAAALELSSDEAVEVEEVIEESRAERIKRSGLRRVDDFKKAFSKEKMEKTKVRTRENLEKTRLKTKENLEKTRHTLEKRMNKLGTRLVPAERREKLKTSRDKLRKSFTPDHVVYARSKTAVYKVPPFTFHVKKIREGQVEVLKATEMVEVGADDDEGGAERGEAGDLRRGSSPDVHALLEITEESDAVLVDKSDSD

Binder: B1
stoichiometry N [1]: 50 ± 5 proteins per complex
brightness of CAV1-GFP over cavin1-GFP [2]: 3.5 fold
stoichiometry N [3]: 40 to 50 cavin1 per caveola

B2: cavin1-Cherry (natural protein, UniProt Q6NZI2 1-390, looked up)
chain: MEDPTLYIVERPLPGYPDAEAPEPSSAGAQAAEEPSGAGSEELIKSDQVNGVLVLSLLDKIIGAVDQIQLTQAQLEERQAEMEGAVQSIQGELSKLGKAHATTSNTVSKLLEKVRKVSVNVKTVRGSLERQAGQIKKLEVNEAELLRRRNFKVMIYQDEVKLPAKLSISKSLKESEALPEKEGEELGEGERPEEDAAALELSSDEAVEVEEVIEESRAERIKRSGLRRVDDFKKAFSKEKMEKTKVRTRENLEKTRLKTKENLEKTRHTLEKRMNKLGTRLVPAERREKLKTSRDKLRKSFTPDHVVYARSKTAVYKVPPFTFHVKKIREGQVEVLKATEMVEVGADDDEGGAERGEAGDLRRGSSPDVHALLEITEESDAVLVDKSDSD
notes: cavin1 / polymerase transcript release factor (PTRF); construct cloned as described in Hill et al. (2008); The only hint on species is the keyword 'human'; the cDNA may be of mouse (surmise); also called PTRF; source: MCF-7 or MDCK cells, transfected (Lipofectamine 2000), in supernatant of mechanically lysed cells
stoichiometry N [4]: 3 CAV1 per cavin1 and 4 CAV1 per cavin1
stoichiometry N [5]: 9 cavin1 proteins per oligomer and 8 cavin1 proteins per oligomer to 10 cavin1 proteins per oligomer (2×)
stoichiometry N [6]: 2 cavin1 per cavin2
stoichiometry N [7]: ~2 cavin1 per cavin3

B3: cavin3-Cherry-myc (cell-free) (natural protein, UniProt Q969G5 1-261, looked up)
chain: MRESALERGPVPEAPAGGPVHAVTVVTLLEKLASMLETLRERQGGLARRQGGLAGSVRRIQSGLGALSRSHDTTSNTLAQLLAKAERVSSHANAAQERAVRRAAQVQRLEANHGLLVARGKLHVLLFKEEGEVPASAFQKAPEPLGPADQSELGPEQLEAEVGESSDEEPVESRAQRLRRTGLQKVQSLRRALSGRKGPAAPPPTPVKPPRLGPGRSAEAQPEAQPALEPTLEPEPPQDTEEDPGRPGAAEEALLQMESVA
notes: cavin3 / SRBC; ORF in a Gateway DNA template for cell-free expression; also called SRBC; cavin3-myc; source: Leishmania tarentolae cell-free system (LTE), in vitro translated, not purified; not shown: mCherry, C-terminal, kept; Myc, C-terminal, kept
stoichiometry N [8]: 3 cavin1 per cavin3

B4: cavin3-Cherry (natural protein, UniProt Q969G5 1-261, looked up)
chain: MRESALERGPVPEAPAGGPVHAVTVVTLLEKLASMLETLRERQGGLARRQGGLAGSVRRIQSGLGALSRSHDTTSNTLAQLLAKAERVSSHANAAQERAVRRAAQVQRLEANHGLLVARGKLHVLLFKEEGEVPASAFQKAPEPLGPADQSELGPEQLEAEVGESSDEEPVESRAQRLRRTGLQKVQSLRRALSGRKGPAAPPPTPVKPPRLGPGRSAEAQPEAQPALEPTLEPEPPQDTEEDPGRPGAAEEALLQMESVA
notes: construct cloned as described in Hill et al. (2008); The only hint on species is the keyword 'human'; the cDNA may be of mouse (surmise); also called SRBC; C3-C; source: MCF-7 or MDCK cells, transfected (Lipofectamine 2000), in supernatant of mechanically lysed cells
stoichiometry N [1]: ~50 monomers

Binder: B5
stoichiometry N [1]: ~50 monomers
